Experimental data taken from patent US20200010567A1 (NEURIMMUNE, published 2020).

Columns and labels:
[1] = biological target: T1, (GP)15: H-C(GP)15-OH; assay: indirect ELISA, coated peptide
T1 construct: synthetic, not coupled to BSA; also called poly-GP DPR protein peptide
T1 peptide: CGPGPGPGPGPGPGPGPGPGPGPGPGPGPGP
Method: (§1) In brief, dipeptide repeat proteins were synthesized and purified by Schafer-N(Copenhagen, Denmark): (GA)₁₅: H-CHHHHHH(GA)₁₅-OH; (GP)₁₅: H-C(GP)₁₅-OH; (GR)₁₅: H-C(GR)₁₅-OH; (PA)₁₅: H-C(PA)₁₅-OH; (PR)₁₅: H—C(PR)₁₅-OH. 96-well microplates (Corning Incorporated, Corning, USA) were coated with dipeptide repeat protein peptides at a concentration of either 5 μg/ml or 20 μg/ml in coating buffer (15 mM Na₂CO₃, 35 mM NaHCO₃, pH 9.42). Non-specific binding sites were blocked for 1 h at room temperature with PBS/0.1% Tween®-20 containing 2% BSA (Sigma-Aldrich, Buchs, Switzerland). Primary antibodies were diluted to the indicated concentrations and incubated for 1 h at room temperature, followed by incubation with a donkey anti-human IgG Fcγ-specific antibody conjugated with HRP (Jackson ImmunoResearch Laboratories, Inc., West Grove, USA). Binding was determined by measurement of HRP activity in a standard colorimetric assay. EC₅₀ values were estimated by non-linear regression using GraphPad Prism software (San Diego, USA). The binding specificity and EC₅₀ of human-derived antibodies for C9orf72 dipeptide repeat protein peptides (GA)₁₅, (GP)₁₅, (GR)₁₅, (PA)₁₅ and (PR)₁₅ were determined by indirect ELISA.

[2] = biological target: T2, (GR)15: H-C(GR)15-OH; assay: indirect ELISA, coated peptide
T2 construct: synthetic, not coupled to BSA; also called poly-GR DPR protein peptide
T2 peptide: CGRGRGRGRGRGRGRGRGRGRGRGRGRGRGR
Method: as §1

[3] = biological target: T3, (PA)15: H-C(PA)15-OH; assay: indirect ELISA, coated peptide
T3 construct: synthetic, not coupled to BSA; also called poly-PA DPR protein peptide
T3 peptide: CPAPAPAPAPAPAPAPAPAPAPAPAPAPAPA
Method: as §1

[4] = biological target: T4, (PR)15: H-C(PR)15-OH; assay: indirect ELISA, coated peptide
T4 construct: synthetic, not coupled to BSA; also called poly-PR DPR protein peptide
T4 peptide: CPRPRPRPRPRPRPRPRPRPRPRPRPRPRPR
Method: as §1

[5] = biological target: Tau (UniProt P10636-8 1-441, limits assumed); assay: indirect ELISA, coated protein
Method: (§2) 96-well microplates (Corning) were coated with different target proteins at a concentration of 1-10 μg/ml in coating buffer (15 mM Na₂CO₃, 35 mM NaHCO₃, pH 9.42). Non-specific binding sites were blocked for 1 h at RT with PBS/0.1% Tween®-20 containing 2% BSA (Sigma-Aldrich, Buchs, Switzerland). […] Binding was determined using donkey anti-human IgG Fcγ-specific antibody conjugated with HRP (Jackson ImmunoResearch Laboratories, Inc., West Grove, USA) followed by measurement of HRP activity in a standard colorimetric assay. Signals for target protein were calculated in fold increase above median.

[6] = biological target: T5, transactive response DNA binding protein 43 (UniProt Q13148 1-414, limits assumed); assay: indirect ELISA, coated protein
T5 construct: also called TDP-43
Method: as §2

[7] = biological target: transthyrethin (UniProt P02766 21-147); assay: indirect ELISA, coated protein
Method: as §2

[8] = biological target: T6, full-length amyloid precursor protein (UniProt P05067 18-770, limits assumed); assay: indirect ELISA, coated protein
T6 construct: also called flAPP
Method: as §2

[9] = biological target: T7, (GA)15: H-CHHHHHH(GA)15-OH; assay: indirect ELISA, coated uncoupled peptide
T7 construct: synthetic, not coupled to BSA; also called poly-GA DPR protein peptide
T7 peptide: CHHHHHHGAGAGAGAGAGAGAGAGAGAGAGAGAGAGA
Method: as §1

[10] = biological target: T8, GA20: H-(GA)20HHHHHH-NH2 (C-terminal amide); assay: indirect ELISA, coated His-tagged peptide
T8 peptide: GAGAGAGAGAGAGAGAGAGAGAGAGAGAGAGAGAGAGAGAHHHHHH
Description: (§3) In brief, dipeptide repeat proteins were synthesized and purified by Schafer-N (Copenhagen, Denmark): GA₂₀: H-(GA)₂₀HHHHHH-NH₂; GA₁₀: H-(GA)₁₀HHHHHH-NH₂; GA₆: H-(GA)₆HHHHHH-NH₂; GA₅: H-(GA)₅HHHHHH-NH₂; GA₄: H-(GA)₄HHHHHH-NH₂; GA₃: H-(GA)₃HHHHHH-NH₂; GA₂: H-(GA)₂HHHHHH-NH₂; GP₂₀: H-(GP)₂₀HHHHHH-NH₂; GP₁₀: H-(GP)₁₀HHHHHH-NH₂; GP₆: H-(GP)₆HHHHHH-NH₂; GP₅: H-(GP)₅HHHHHH-NH₂; GP₄: H-(GP)₄HHHHHH-NH₂; GP₃: H-(GP)₃HHHHHH-NH₂; GP₂: H-(GP)₂HHHHHH-NH₂. GR₂₀: H-(GR)₂₀HHHHHH-NH₂; GR₁₀: H-(GR)₁₀HHHHHH-NH₂; GR₆: H-(GR)₆HHHHHH-NH₂; GR₅: H-(GR)₅HHHHHH-NH₂; GR₄: H-(GR)₄HHHHHH-NH₂; GR₃: H-(GR)₃HHHHHH-NH₂; GR₂: H-(GR)₂HHHHHH-NH₂; PA₂₀: H-(PA)₂₀HHHHHH-NH₂; PA₁₀: H-(PA)₁₀HHHHHH-NH₂; PA₆: H-(PA)₆HHHHHH-NH₂; PA₅: H-(PA)₅HHHHHH-NH₂; PA₄: H-(PA)₄HHHHHH-NH₂; PA₃: H-(PA)₃HHHHHH-NH₂; PA₂: H-(PA)₂HHHHHH-NH₂; PR₂₀: H-(PR)₂₀HHHHHH-NH₂; PR₁₀: H-(PR)₁₀HHHHHH-NH₂; PR₆: H-(PR)₆HHHHHH-NH₂; PR₅: H-(PR)₅HHHHHH-NH₂; PR₄: H-(PR)₄HHHHHH-NH₂; PR₃: H-(PR)₃HHHHHH-NH₂; PR₂: H-(PR)₂HHHHHH-NH₂. 96-well microplates (Corning Incorporated, Corning, USA) were coated with dipeptide repeat protein peptides at a concentration of 50 μg/ml in coating buffer (15 mM Na₂CO₃, 35 mM NaHCO₃, pH 9.42). Non-specific binding sites were blocked for 1 h at room temperature with PBS/0.1% Tween®-20 containing 2% BSA (Sigma-Aldrich, Buchs, Switzerland). Primary antibodies were diluted to the indicated concentrations and incubated 1 h at room temperature, followed by incubation with a donkey anti-human IgG Fcγ-specific antibody conjugated with HRP (Jackson ImmunoResearch Laboratories, Inc., West Grove, USA). Binding was determined by measurement of HRP activity in a standard colorimetric assay. EC₅₀ values were estimated by non-linear regression using GraphPad Prism software (San Diego, USA).

[11] = biological target: T9, GA10: H-(GA)10HHHHHH-NH2 (C-terminal amide); assay: indirect ELISA, coated His-tagged peptide
T9 peptide: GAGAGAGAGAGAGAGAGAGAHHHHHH
Description: as §3

T6 sequence (P05067 18-770 limits assumed): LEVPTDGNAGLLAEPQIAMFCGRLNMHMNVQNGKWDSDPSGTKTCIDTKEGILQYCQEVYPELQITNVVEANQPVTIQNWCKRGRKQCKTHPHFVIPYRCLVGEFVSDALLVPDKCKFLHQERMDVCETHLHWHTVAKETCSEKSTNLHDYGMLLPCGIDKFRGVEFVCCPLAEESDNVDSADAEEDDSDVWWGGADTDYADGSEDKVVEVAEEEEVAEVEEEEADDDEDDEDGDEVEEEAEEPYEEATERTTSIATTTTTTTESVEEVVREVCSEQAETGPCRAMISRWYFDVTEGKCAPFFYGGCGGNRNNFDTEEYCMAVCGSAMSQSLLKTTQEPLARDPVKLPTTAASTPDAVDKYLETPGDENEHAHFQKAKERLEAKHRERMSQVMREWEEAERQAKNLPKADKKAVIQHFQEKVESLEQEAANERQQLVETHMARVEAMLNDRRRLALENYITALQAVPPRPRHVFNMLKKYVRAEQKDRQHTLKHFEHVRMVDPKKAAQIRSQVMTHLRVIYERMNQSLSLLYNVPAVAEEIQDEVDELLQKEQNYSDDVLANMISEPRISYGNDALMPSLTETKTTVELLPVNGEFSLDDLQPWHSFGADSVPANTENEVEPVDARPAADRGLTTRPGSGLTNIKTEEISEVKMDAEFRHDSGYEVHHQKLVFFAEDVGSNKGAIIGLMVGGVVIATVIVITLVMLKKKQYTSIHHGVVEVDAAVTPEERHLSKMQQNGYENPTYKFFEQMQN
Tau, sequence (P10636 other isoform, or with tags, fused parts or gaps limits assumed): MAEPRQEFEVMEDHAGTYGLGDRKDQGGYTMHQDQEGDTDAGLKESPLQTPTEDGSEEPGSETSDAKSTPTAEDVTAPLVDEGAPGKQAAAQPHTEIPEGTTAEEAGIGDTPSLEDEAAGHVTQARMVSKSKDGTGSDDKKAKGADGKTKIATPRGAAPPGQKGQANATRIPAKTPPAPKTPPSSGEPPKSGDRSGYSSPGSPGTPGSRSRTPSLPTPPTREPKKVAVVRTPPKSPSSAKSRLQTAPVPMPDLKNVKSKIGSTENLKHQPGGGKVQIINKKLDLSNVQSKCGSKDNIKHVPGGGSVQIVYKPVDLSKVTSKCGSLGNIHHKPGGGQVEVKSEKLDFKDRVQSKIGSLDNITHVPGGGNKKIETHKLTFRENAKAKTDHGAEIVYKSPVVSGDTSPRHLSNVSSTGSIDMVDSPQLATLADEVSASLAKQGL
T5 sequence (Q13148 whole entry): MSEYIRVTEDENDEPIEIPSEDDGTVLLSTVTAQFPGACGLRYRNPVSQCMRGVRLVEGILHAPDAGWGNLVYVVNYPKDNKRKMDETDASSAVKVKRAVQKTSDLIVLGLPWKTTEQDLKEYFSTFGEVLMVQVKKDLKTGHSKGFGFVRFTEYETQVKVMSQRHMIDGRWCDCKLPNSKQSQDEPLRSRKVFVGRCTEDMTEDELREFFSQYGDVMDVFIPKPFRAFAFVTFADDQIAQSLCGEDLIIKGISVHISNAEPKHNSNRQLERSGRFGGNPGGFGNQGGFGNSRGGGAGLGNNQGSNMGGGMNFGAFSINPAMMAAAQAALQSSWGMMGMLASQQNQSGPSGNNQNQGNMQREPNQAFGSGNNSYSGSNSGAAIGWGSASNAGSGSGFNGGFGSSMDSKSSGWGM

B1: NI-308.15O7 (antibody, V domains shown)
VH: QVQLVESGGGVVQPGRSLRLSCAASGFTFSNHAMHWVRQAPGKGLEWVAVISYDGENTYYADSIEGRFTISRDNFKNTLFLQMYSLTADDTAMYFCARGGRRGHFTSYYLDYWGQGTLVTVSS
VL: CDIQMTQSPSSLSASVGDRVTITCRASQNIDKYLNWYQQIPGKAPKLLIYAASSLHSGVPSRFSGSGSGTDFSLTISSLQPEDFAIYYCQQSYSSFRTFGQGTKLEIK
[1]
  binding result: no binding
[2]
  binding result: no binding
[3]
  binding result: no binding
[4]
  binding result: no binding
[5]
  binding result: no binding (tested: 20 nM)
[6]
  binding result: no binding (tested: 20 nM)
[7]
  binding result: no binding (tested: 20 nM)
[8]
  binding result: no binding (tested: 20 nM)
[9]
  EC50: 0.48 nM
[10]
  EC50: 0.54 nM

B2: NI-308.45C2 (antibody, V domains shown)
VH: QLQLQESGPGLVKPSQILSLTCAISGDSVFSNSAAWNWIRQSPSRGLEWLGRTYYRSKWDNDYAPSVKSRISINPDTSKNQFSLQLNSVTPEDTAVYYCAREVAYCGGDCYSVSFDYWGQGTLVTVSS
VL: not shown
notes: Recombinant complete human IgG1, kappa
[1]
  binding result: no binding
[2]
  binding result: no binding
[3]
  binding result: no binding
[4]
  binding result: no binding
[5]
  binding result: no binding (tested: 20 nM)
[6]
  binding result: no binding (tested: 20 nM)
[7]
  binding result: no binding (tested: 20 nM)
[8]
  binding result: no binding (tested: 20 nM)
[10]
  EC50: 9.6 nM
[11]
  EC50: 7.6 nM

B3: NI-308.24E11 (antibody, V domains shown)
VH: QVQLQESGPGLVKPSETLSLTCTVSTTSLRSYFWSWIRQPPGKGLEWIGYVYYSGSTIYNPSLKNRVTISIDTSKNQFSLNLRSVTAADTAMYFCARGVPAETDARDFPPYYFDHWGQGTLVTVSS
VL: CDIQLTQSPSSLSASVGNRITFTCQASQDIRYYLNWYQQKPGKAPKLLIYDVSNLDTGVPPRFSGSGSGTNFTFTISSLQPEDIAVYYCQQYEGLPVTFGGGTKVEIK
notes: as for B2
[1]
  binding result: no binding
[2]
  binding result: no binding
[3]
  binding result: no binding
[5]
  binding result: no binding (tested: 20 nM)
[6]
  binding result: no binding (tested: 20 nM)
[7]
  binding result: no binding (tested: 20 nM)
[8]
  binding result: no binding (tested: 20 nM)

B4: NI-308.5G2 (antibody, V domains shown)
VH: EVQLVQSGADLRNPGASVTVSCTASGYHFADNAINWLRQAPGQRLEWMGWINIYSGNTKYSQNFQGRVTFTRNTSASTAFMHLRSLRSEDTAVYFCARDPDSSGYYLPYFDYWGQGTLVTVSS
VL: DIQLTQSPDSLTLSLGERATINCKSSQSVFYNSNNKNYLAWYQQKPGQPPKLLMYWASTRESGVTDRFSGSGSGTDFTLTITNLQAEDVAVYYCQQFYSSPLTFGGGTKVEIK
notes: as for B2
[2]
  binding result: no binding
[3]
  binding result: no binding
[4]
  binding result: no binding
[5]
  binding result: no binding (tested: 20 nM)
[6]
  binding result: no binding (tested: 20 nM)
[7]
  binding result: no binding (tested: 20 nM)
[8]
  binding result: no binding (tested: 20 nM)
[9]
  EC50: ~15.3 nM
[10]
  EC50: 18.2 nM
[11]
  EC50: 5.7 nM

B5: NI-308.46E9 (antibody, V domains shown)
VH: QVQLQESGPGLVKPSETLSLTCTVSGASISGSTYYWGWIRQPPGKGLEYIGRIYYSGSTYYNPSLKSRATISVDTSKNQLSLTLSSVTAADTAVYYCVRPFYAGSGNSPFDYWGQGTLVTVSS
VL: CEIVLTQSPATVSVSPGERATLSCRASQSVSTNLAWYQQKPGQPPRLLIYGASTRATGIPARFSGSGSGAEFTLTISSLQSEDFVVYYCQQYNNWPPAFGGGTKVEIK
notes: as for B2
[2]
  binding result: no binding
[3]
  binding result: no binding
[4]
  binding result: no binding

B6: NI-308.6B11 (antibody, V domains shown)
VH: EVQLVQSGAEVKRPGASVKVSCKVSGYTLTELSMHWVRQAPGKGLEWMGGFDPEDGETVYAQKFQGRVTMTEDTSTDTAYMELSSLRSEDTALYHCATYGSSWHWNEGNEGSYYFDYWGQGTLVTVSS
VL: CDIQMTQSPSSLSASVGDRVTITCQASQDISIYLNWYQQKPGKAPKLLIYDASNLETGVPSRFSGSGSGTDFTFTISGLQPEDVARYYCQQYDDLPITFGQGTRLEIK
notes: as for B2
[1]
  binding result: no binding
[3]
  binding result: no binding
[5]
  binding result: no binding (tested: 20 nM)
[6]
  binding result: no binding (tested: 20 nM)
[7]
  binding result: no binding (tested: 20 nM)
[8]
  binding result: no binding (tested: 20 nM)
[9]
  EC50: ~38.4 nM
[10]
  EC50: 33.6 nM
[11]
  EC50: 27.7 nM

B7: NI-308.4M1 (antibody, V domains shown)
VH: EVQLVETGGGVVQPGGSLRLSCEASGFTIGTYAMHWVRQFPGKGLDWVAVISFDGTTEYYTDAVKGRFTISRDNAKNTLYLQMNYLRGDDTAIYFCARDFTSSGETGSWTQVPDLWGQGTLVTVSS
VL: CEIVMTQSPATLSLSPGERATLSCRASQSVTKYLAWYQQKPGQAPRLLIYDVSYRAAGTPARFSGSGSGTDFTLTISSLEPEDFAVYYCHQRSSWPPVTFGGGTKVEIK
notes: as for B2
[1]
  binding result: no binding
[2]
  binding result: no binding
[4]
  binding result: no binding
